Assay results as given in patent publication US20240350588A1 (SUNSHINE LAKE PHARMA, published 2024).

T1: human GFRAL (UniProtKB-Q6UXVO) (human, UniProt Q6UXV0 19-394)
T1 sequence (looked up): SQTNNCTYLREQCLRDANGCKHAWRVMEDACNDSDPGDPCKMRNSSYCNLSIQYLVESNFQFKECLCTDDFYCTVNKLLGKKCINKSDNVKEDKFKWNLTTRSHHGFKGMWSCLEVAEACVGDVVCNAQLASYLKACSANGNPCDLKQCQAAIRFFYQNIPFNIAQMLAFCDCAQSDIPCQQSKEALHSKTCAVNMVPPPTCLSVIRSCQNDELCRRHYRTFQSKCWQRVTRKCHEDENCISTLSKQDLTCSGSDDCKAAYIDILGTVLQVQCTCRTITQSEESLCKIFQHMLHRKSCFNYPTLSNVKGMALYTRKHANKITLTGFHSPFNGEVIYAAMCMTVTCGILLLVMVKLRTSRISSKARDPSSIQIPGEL


Biological target: T1, human GFRAL (UniProtKB-Q6UXVO)
Assay: cell-based or functional assay

Relative activity ratio (native GDF15 EC50: Fc-GDF15 construct EC50), ERK1/2 phosphorylation HTRF in HEK293T cells expressing human GFRAL and RET [ratio]	Binder
3.17	Fc-GDF15 fusion protein M37 (Fc fusion) APEAAGGPSVFLFPPKPKDTLMISRTPEVTCVVVDVSQEDPEVQFNWYVDGVEVHNAKTKPREEQFNSTYRVVSVLTVLHQDWLNGKEYKCKVSNKGLPSSIEKTISKAKGQPREPQVYTLPPSQEEMTKNQVSLTCLVKGFYPSDIAVEWESNGQPENNYKTTPPVLDSDGSFFLYSRLTVDKSRWQEGNVFSCSVMHEALHNHYTQESLSLSLGGGGGSGGGGSAPAPAPAPAPAPAPAPAPAPGGGGSGGGGSCRLHTVRASLEDLGWADWVLSPREVQVTMCIGACPSQFRAANMHAQIKTSLHRLKPDTVPAPCCVPASYNPMVLIQKTDTGVSLQTYDDLLAKDCHCI
2.62	Fc-GDF15 fusion protein M39 (Fc fusion) APEAAGGPSVFLFPPKPKDTLMISRTPEVTCVVVDVSQEDPEVQFNWYVDGVEVHNAKTKPREEQFNSTYRVVSVLTVLHQDWLNGKEYKCKVSNKGLPSSIEKTISKAKGQPREPQVYTLPPSQEEMTKNQVSLTCLVKGFYPSDIAVEWESNGQPENNYKTTPPVLDSDGSFFLYSRLTVDKSRWQEGNVFSCSVMHEALHNHYTQQSLSLSLGGGGGSGGGGSAPAPAPAPAPAPAPAPAPAPGGGGSGGGGSGDHCPLGPGRCCRLHTVRASLEDLGWADWVLSPREVQVTMCIGACPSQFRAANMHAQIKTSLHRLKPDTVPAPCCVPASYNPMVLIQKTDTGVSLQTYDDLLAKDCHCI
1.26	Fc-GDF15 fusion protein M29 (Fc fusion) APEAAGGPSVFLFPPKPKDTLMISRTPEVTCVVVDVSQEDPEVQFNWYVDGVEVHNAKTKPREEQFNSTYRVVSVLTVLHQDWLNGKEYKCKVSNKGLPSSIEKTISKAKGQPREPQVYTLPPSQEEMTKNQVSLTCLVKGFYPSDIAVEWESNGQPENNYKTTPPVLDSDGSFFLYSRLTVDKSRWQEGNVFSCSVMHEALHNHYTQESLSLSLGGGGGSGGGGSAPAPAPAPAPAPAPAPAPAPGGGGSGGGGSDHCPLGPGRCCRLHTVRASLEDLGWADWVLSPREVQVTMCIGDCPSQFRAANMHAQIKTSLHRLKPDTVPAPCCVPASYNPMVLIQKTDTGVSLQTYDDLLAKDCHCI
0.84	Fc-GDF15 fusion protein M33 (Fc fusion) APEAAGGPSVFLFPPKPKDTLMISRTPEVTCVVVDVSQEDPEVQFNWYVDGVEVHNAKTKPREEQFNSTYRVVSVLTVLHQDWLNGKEYKCKVSNKGLPSSIEKTISKAKGQPREPQVYTLPPSQEEMTKNQVSLTCLVKGFYPSDIAVEWESNGQPENNYKTTPPVLDSDGSFFLYSRLTVDKSRWQEGNVFSCSVMHEALHNHYTQESLSLSLGGGGGSGGGGSAPAPAPAPAPAPAPAPAPAPGGGGSGGGGSDHCPLGPGRCCRLHTVRASLEDLGWADWVLSPREVQVTMCIGACPSQFRAANMHAQIKTSLHQLKPDTVPAPCCVPASYNPMVLIQKTDTGVSLQTYDDLLAKDCHCI
0.87	Fc-GDF15 fusion protein M31 (Fc fusion) APEAAGGPSVFLFPPKPKDTLMISRTPEVTCVVVDVSQEDPEVQFNWYVDGVEVHNAKTKPREEQFNSTYRVVSVLTVLHQDWLNGKEYKCKVSNKGLPSSIEKTISKAKGQPREPQVYTLPPSQEEMTKNQVSLTCLVKGFYPSDIAVEWESNGQPENNYKTTPPVLDSDGSFFLYSRLTVDKSRWQEGNVFSCSVMHEALHNHYTQESLSLSLGGGGGSGGGGSAPAPAPAPAPAPAPAPAPAPGGGGSGGGGSDHCPLGPGRCCRLHTVRASLEDLGWADWVLSPREVQVTMCIGACPSQFRAENMHAQIKTSLHRLKPDTVPAPCCVPASYNPMVLIQKTDTGVSLQTYDDLLAKDCHCI
1.51	Fc-GDF15 fusion protein M30 (Fc fusion) APEAAGGPSVFLFPPKPKDTLMISRTPEVTCVVVDVSQEDPEVQFNWYVDGVEVHNAKTKPREEQFNSTYRVVSVLTVLHQDWLNGKEYKCKVSNKGLPSSIEKTISKAKGQPREPQVYTLPPSQEEMTKNQVSLTCLVKGFYPSDIAVEWESNGQPENNYKTTPPVLDSDGSFFLYSRLTVDKSRWQEGNVFSCSVMHEALHNHYTQESLSLSLGGGGGSGGGGSAPAPAPAPAPAPAPAPAPAPGGGGSGGGGSDHCPLGPGRCCRLHTVRASLEDLGWADWVLSPREVQVTMCIGACPSQFRSANMHAQIKTSLHRLKPDTVPAPCCVPASYNPMVLIQKTDTGVSLQTYDDLLAKDCHCI
0.82	Fc-GDF15 fusion protein M36 (Fc fusion) APEAAGGPSVFLFPPKPKDTLMISRTPEVTCVVVDVSQEDPEVQFNWYVDGVEVHNAKTKPREEQFNSTYRVVSVLTVLHQDWLNGKEYKCKVSNKGLPSSIEKTISKAKGQPREPQVYTLPPSQEEMTKNQVSLTCLVKGFYPSDIAVEWESNGQPENNYKTTPPVLDSDGSFFLYSRLTVDKSRWQEGNVFSCSVMHEALHNHYTQESLSLSLGGGGGSGGGGSAPAPAPAPAPAPAPAPAPAPGGGGSGGGGSDHCPLGPGRCCRLHTVRASLEDLGWADWVLSPREVQVTMCIGACPSQFRAANMHAQIKTSLHRLKPDTVPAPCCVPASYNPMVLIQKTDTGVSLQTYDDLLAQDCHCI
1.26	Fc-GDF15 fusion protein M32 (Fc fusion) APEAAGGPSVFLFPPKPKDTLMISRTPEVTCVVVDVSQEDPEVQFNWYVDGVEVHNAKTKPREEQFNSTYRVVSVLTVLHQDWLNGKEYKCKVSNKGLPSSIEKTISKAKGQPREPQVYTLPPSQEEMTKNQVSLTCLVKGFYPSDIAVEWESNGQPENNYKTTPPVLDSDGSFFLYSRLTVDKSRWQEGNVFSCSVMHEALHNHYTQESLSLSLGGGGGSGGGGSAPAPAPAPAPAPAPAPAPAPGGGGSGGGGSDHCPLGPGRCCRLHTVRASLEDLGWADWVLSPREVQVTMCIGACPSQFRAANTHAQIKTSLHRLKPDTVPAPCCVPASYNPMVLIQKTDTGVSLQTYDDLLAKDCHCI
0.9	Fc-GDF15 fusion protein M34 (Fc fusion) APEAAGGPSVFLFPPKPKDTLMISRTPEVTCVVVDVSQEDPEVQFNWYVDGVEVHNAKTKPREEQFNSTYRVVSVLTVLHQDWLNGKEYKCKVSNKGLPSSIEKTISKAKGQPREPQVYTLPPSQEEMTKNQVSLTCLVKGFYPSDIAVEWESNGQPENNYKTTPPVLDSDGSFFLYSRLTVDKSRWQEGNVFSCSVMHEALHNHYTQESLSLSLGGGGGSGGGGSAPAPAPAPAPAPAPAPAPAPGGGGSGGGGSDHCPLGPGRCCRLHTVRASLEDLGWADWVLSPREVQVTMCIGACPSQFRAANMHAQIKTSLHRLKPDTVPAPCCVPSSYNPMVLIQKTDTGVSLQTYDDLLAKDCHCI
0.19	Fc-GDF15 fusion protein M35 (Fc fusion) APEAAGGPSVFLFPPKPKDTLMISRTPEVTCVVVDVSQEDPEVQFNWYVDGVEVHNAKTKPREEQFNSTYRVVSVLTVLHQDWLNGKEYKCKVSNKGLPSSIEKTISKAKGQPREPQVYTLPPSQEEMTKNQVSLTCLVKGFYPSDIAVEWESNGQPENNYKTTPPVLDSDGSFFLYSRLTVDKSRWQEGNVFSCSVMHEALHNHYTQESLSLSLGGGGGSGGGGSAPAPAPAPAPAPAPAPAPAPGGGGSGGGGSDHCPLGPGRCCRLHTVRASLEDLGWADWVLSPREVQVTMCIGACPSQFRAANMHAQIKTSLHRLKPDTVPAPCCVPASYNPMVLIQKTDEGVSLQTYDDLLAKDCHCI
